± gives the standard deviation.
Test: protein stability index of a GFP-peptide fusion (GPS, HEK-293T) (PSI 1-6); higher = more stable
[1] = treatment: DMSO, c terminus: a fixed tail appended
[2] = treatment: MLN4924 1 uM, 8 h, c terminus: a fixed tail appended
[3] = treatment: DMSO, c terminus: native
[4] = treatment: MLN4924 1 uM, 8 h, c terminus: native
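Note: 24-mer peptide tiles fused after GFP, lentivirally expressed, FACS-sorted into six equal bins by GFP/DsRed ratio, decoded by Illumina sequencing, PSI is the read-weighted mean bin number.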

Row | Sequence | protein stability index [1] | protein stability index [2] | protein stability index [3] | protein stability index [4]
1 | SAMAENILAAACESETRKAAKRMR [NOL4L] | 4.32 ± 0.2 | 4.69 ± 0.46 | – | –
2 | QPCNPPAPAGDKGFQPPSPSLRPR [DMRTC1] | 5.27 ± 0.14 | 5.15 ± 0.19 | – | –
3 | SHLVIHNLFEGMIWFIVPISCVIC [CDS2] | 3.09 ± 0.45 | 2.81 ± 0.2 | – | –
4 | FGFFFGRTPLIKLSPKKTWEGFIG [CDS1] | 2.47 ± 0.48 | 2.18 ± 0.57 | – | –
5 | EPPPALPPAADAPVTQIGFEAPPL [TRIM55] | 5.24 ± 0.22 | 5.39 ± 0.11 | – | –
6 | NVEMDAAPGVDLSRILNEMRDQYE [KRT16] | 4.34 ± 0.18 | 4.46 ± 0.37 | – | –
7 | YGYAAQARARERERLAHSRAAAAA [KCNA4] | 3.9 ± 0.26 | 4.02 ± 0.097 | – | –
8 | DARQLFVLAGAAEEGFMTAELAGV [GNAI1] | 2.75 ± 0.37 | 2.92 ± 0.31 | – | –
9 | YMDTKLLVARFLEQSSCTMTPDIH [FAM189A2] | 2.15 ± 0.45 | 2.18 ± 0.084 | – | –
10 | LLDNPLCADVLFILQDQEHIFAHR [RHOBTB1] | 2.36 ± 0.35 | 2.17 ± 0.11 | – | –
11 | WNVAAPLYLKQSDLASAAAKQIME [INTS4] | 2.67 ± 0.13 | 2.81 ± 0.05 | – | –
12 | QDACQAQAREKELLELQSQQACTH [CCDC89] | 4.91 ± 0.29 | 4.9 ± 0.2 | – | –
13 | TVEERQTGMWWRHLVAGGGAGAVS [SLC25A25] | 2.98 ± 0.39 | 2.96 ± 0.43 | – | –
14 | PRCPRMVLSLKEGAREEDLDAVEA [FBXO3] | 5.32 ± 0.36 | 5.27 ± 0.17 | – | –
15 | PAAGRELPPDMTVVPGDHLLEPEV [KCNA3] | 5.3 ± 0.15 | 5.31 ± 0.08 | – | –
16 | MDGQTDFWRDWEDYAHGFGNISGE [TNXB] | 3.94 ± 0.34 | 4.34 ± 0.58 | – | –
17 | KLCKKGLAATTSMAYAKLMLTVMT [FANCE] | 2.33 ± 0.52 | 2.22 ± 0.43 | – | –
18 | EFETLYNEHKSCEEKSVKNTSIRV [CLK3] | 4.59 ± 0.36 | 4.77 ± 0.23 | – | –
19 | NEKQLHTLRTCYAANPRPDALMKE [ISL2] | 4.05 ± 0.43 | 4.15 ± 0.53 | – | –
20 | QRKKWVDLAWMITFYVRFFLTYVP [FADS1] | 2.79 ± 0.29 | 2.83 ± 0.44 | – | –
21 | RLSTSPVRLAARQEDAPMIEPLVP [EPB41L3] | 4.6 ± 0.18 | 4.63 ± 0.43 | – | –
22 | LANGRALSAGSPPVPPGWNPNSSS [DLX1] | 3.93 ± 0.22 | 4 ± 0.29 | – | –
23 | YVPNMLGIIPYAGIDLAVYETLKN [SLC25A25] | 2.87 ± 0.19 | 2.61 ± 0.5 | – | –

Row | Sequence | protein stability index [1] | protein stability index [2] | protein stability index [3] | protein stability index [4]
24 | LLQLPDTKVGSFMIRESETKKGFY [SLA] | 2.75 ± 0.25 | 2.95 ± 0.047 | – | –
25 | SLDTLLEAVESRGGVPGGCVLVPR [SMAD6] | 3.23 ± 0.17 | 3.23 ± 0.25 | – | –
26 | MCLKKNHEEEVSVLRCQLGDRLNV [KRT36] | 3.24 ± 0.29 | 3.02 ± 0.35 | – | –
27 | VNKLKWNLAAMTPHDFIEHFLSKM [CCND1] | 2.25 ± 0.35 | 2.51 ± 0.25 | – | –
28 | MSWRGRSTYYWPRPRRYVQPPEMI [GAGE1] | 2.64 ± 0.43 | 2.55 ± 0.24 | – | –
29 | DKFKRPTPPPSPNTQTPVQPPPPP [CCDC6] | 5.03 ± 0.091 | 5.12 ± 0.16 | – | –
30 | NSPSSPSSSAASSSSPSSSSAVV [RHOBTB2] | – | – | 5.31 ± 0.12 | 5.456 ± 0.023
31 | VPTCSMCKVFGIHKACEVAPLQSV [TRIM63] | 2.64 ± 0.32 | 2.73 ± 0.14 | – | –
32 | VCALSALPAGPLPAPLLVLCPSRA [PLEKHN1] | 2.12 ± 0.2 | 2.18 ± 0.16 | – | –
33 | EELEEDIRKKLKDSGDVSNVIEKV [RHOBTB3] | 5.37 ± 0.31 | 5.5 ± 0.25 | – | –
34 | RSDGKTCAKLDSCALGDHGCEHSC [MATN2] | 4.54 ± 0.31 | 4.59 ± 0.32 | – | –
35 | TGAHWMRQPVSFHRVKLTNSTLDP [TBX6] | 2.96 ± 0.074 | 3.02 ± 0.16 | – | –
36 | TLRTCYAANPRPDALMKEQLVEMT [ISL2] | 3.53 ± 0.22 | 3.52 ± 0.28 | – | –
37 | GGYGFGRGRASGFAGSMFGSVALG [KRT71] | 3.05 ± 0.6 | 2.96 ± 0.25 | – | –
38 | STVGSAISRKLGDMRNSATFKSFE [TPD52L2] | 3.28 ± 0.2 | 3.28 ± 0.31 | – | –
39 | GNMFPTIGDVHLAPFTDEQLYMEQ [CARM1] | 3.93 ± 0.27 | 4.12 ± 0.19 | – | –
40 | PGPMDWVPRYTGVAPQDQCKLTCQ [ADAMTS4] | 3.77 ± 0.35 | 4.14 ± 0.36 | – | –
41 | SLQLVFGIELMEVDPIGHVYIFAT [MAGEA6] | 2.73 ± 0.21 | 3 ± 0.28 | – | –
42 | CSQLLESSYFDSFQEAQIKRKARN [CDKL4] | 3.51 ± 0.56 | 3.528 ± 0.023 | – | –
43 | ISVILPTVHEVDIFRCFCPVFLHS [DENND6A] | 3.07 ± 0.19 | 3 ± 0.56 | – | –
44 | LGDKGLSDTPYDSSASYEKENEMM [IKZF1] | 5.37 ± 0.14 | 5.26 ± 0.18 | – | –
45 | CGDGNTETHRAPDLVQWTRHMEAV [SOAT2] | 3.55 ± 0.044 | 3.48 ± 0.31 | – | –
46 | CRNCINLQNEAQKRESFLKYKCLL [IQUB] | 2.08 ± 0.44 | 2.22 ± 0.26 | – | –

Row | Sequence | protein stability index [1] | protein stability index [2] | protein stability index [3] | protein stability index [4]
47 | IDSHLLLSVLPQLEFKLKSNDNEE [PDS5B] | 3.32 ± 0.27 | 3.09 ± 0.096 | – | –
48 | LLLENGAGINTHSNEFKESALTLA [ANKRD17] | 2.32 ± 0.54 | 2.76 ± 0.6 | – | –
49 | ELGSPLRRSISSSRSENVLSRLSL [PSD2] | 3.07 ± 0.42 | 3.2 ± 0.13 | – | –
50 | PEGQKVLFVTFLLIYMVTIMGNLL [OR4A15] | 3.06 ± 0.36 | 3.24 ± 0.5 | – | –
51 | SLKVKFFDLERENACATKEQKNHT [PLD5] | 4 ± 0.36 | – | – | –
52 | GQFVSLDGAGKTPTLGGGFHVNLG [BRF1] | 2.96 ± 0.37 | 3.06 ± 0.11 | – | –
53 | VTYSLLKRLKERSLDTLLEAVESR [SMAD6] | 2.26 ± 0.17 | 2.33 ± 0.29 | – | –
54 | PPVPCVPSVPCTPAPQVGTQIRTI [KRT36] | 4.46 ± 0.22 | 4.31 ± 0.2 | – | –
55 | EELSVLEVFEGREDSILGDPKKLL [MAGEA3] | 4.38 ± 0.28 | 4.75 ± 0.23 | – | –
56 | LLKHPNIVRLHDSISEEGFHYLVF [CAMK2D] | 2.42 ± 0.32 | 2.2 ± 0.18 | – | –
57 | TELSFLVTTHQPTNLVLPSNGSMH [EDNRA] | 2.67 ± 0.33 | 2.44 ± 0.42 | – | –
58 | NDIRIFLEKVLEENAQKKRFNQVL [VPS39] | 2.1 ± 0.24 | 2.27 ± 0.29 | – | –
59 | RKKDKTWMHTPEALSKHFIPYNAK [GULP1] | 2.82 ± 0.25 | 2.99 ± 0.47 | – | –
60 | DCLKKFNARRKLKGAILTTMLATR [CAMK2D] | 3.04 ± 0.78 | 3.49 ± 0.37 | – | –
61 | MAYAKLMLTVMTKYQANITETQRL [FANCE] | 3.16 ± 0.75 | 2.95 ± 0.52 | – | –
62 | ESRMRIESLSSQLSNLQKESRACL [LMNB1] | 3.63 ± 0.34 | 3.94 ± 0.12 | – | –
63 | VFAHCKEAPSTASSTPDSTEGGND [RTN2] | 5.42 ± 0.33 | 5.37 ± 0.37 | – | –
64 | GVWHQMGTDGYMPRELASMSLVLH [KLHDC10] | 2.08 ± 0.21 | 2.06 ± 0.27 | – | –
65 | TRIMIGLTLVFFVQITGQPNILFY [SLC2A12] | 3.16 ± 0.61 | 3.27 ± 0.35 | – | –
66 | TQQWTAICPLKERRFGAVACGVAM [GAN] | 2.83 ± 0.37 | 2.52 ± 0.55 | – | –
67 | TEQLIEAVNNGDFEAYAKICDPGL [CAMK2B] | 4.19 ± 0.22 | 4.19 ± 0.23 | – | –
68 | SMKASLEGNLAETENRYCVQLSQI [KRT17] | 3.22 ± 0.34 | 3.51 ± 0.39 | – | –
69 | TISFRIYKSVLQAVQKTDEGHPFK [RTN1] | 2.13 ± 0.17 | 2.28 ± 0.13 | – | –

Row | Sequence | protein stability index [1] | protein stability index [2] | protein stability index [3] | protein stability index [4]
70 | DWFSGHLNFQIEHHLFPTMPRHNY [FADS1] | 2.15 ± 0.48 | 2.07 ± 0.25 | – | –
71 | AAEEPGVRGLLASLFAFKSFRENW [C2CD2L] | 2.44 ± 0.19 | 2.65 ± 0.032 | – | –
72 | RIPGAWSCAWSLNIQANNCFSTGL [DCAF4] | 2.76 ± 0.94 | 2.69 ± 0.6 | – | –
73 | WQVLKTHPGDPRFQCSLWHLYPL [POLD4] | – | – | 2.42 ± 0.62 | 2.14 ± 0.33
74 | NFSLATNTKYSVYIYVYFHTKLTS [R3HDM1] | 2.6 ± 0.41 | 2.36 ± 0.9 | – | –
75 | GPLDIWAVVKPGNTKEKIAFFASH [FBXO34] | 2.45 ± 0.27 | 2.78 ± 0.21 | – | –
76 | DNALWERDRNLLQEDKALWEEEKA [CCDC70] | 5.57 ± 0.32 | 5.05 ± 0.31 | – | –
77 | SAQNGLASSLPAEVHSLTLSPPEQ [PLAGL1] | 5 ± 0.15 | 5.03 ± 0.22 | – | –
78 | KRSVYIDARDEELEKDTMDNWDEK [ZC3H15] | 4.98 ± 0.31 | 4.88 ± 0.24 | – | –
79 | IQASAGVISKKAKVKVPQKTAGKE [ZNF75A] | 4.6 ± 0.16 | 4.79 ± 0.27 | – | –
80 | IRNRGYNLIYRSTRHLKRLALMIQ [TMEM192] | 3.02 ± 0.16 | 2.97 ± 0.38 | – | –
81 | PELNNNQYNRSSNSNGGNLNSPPG [CDC14A] | 4.98 ± 0.15 | 4.84 ± 0.27 | – | –
82 | YPPLEGHVRQGVFSSLNHIVEKRV [INTS3] | 3.17 ± 0.3 | 3.38 ± 0.38 | – | –
83 | TKMWHPNIYENGDVCISILHPPVD [UBE2R2] | 2.11 ± 0.34 | 2.23 ± 0.055 | – | –
84 | QQIEEQRVQVQVVERAQQVAVQEQ [FLOT1] | 5.17 ± 0.41 | 5.03 ± 0.32 | – | –
85 | NTPMEETVRAMTHVINQGMAMYWG [KCNAB2] | 2.92 ± 0.39 | 3.13 ± 0.96 | – | –
86 | LKVRSHDPEEAIRHDVIVSIVTAA [PDS5B] | 2.43 ± 0.19 | 2.35 ± 0.27 | – | –
87 | LPVGGRLPGPTRPVLGRRAVGGRL [HAGHL] | 3.983 ± 0.03 | 4.24 ± 0.64 | – | –
88 | LDVECHEKEKHVNQLQTKVAVLEQ [SASS6] | 5.03 ± 0.11 | 5.07 ± 0.21 | – | –
89 | PHIEEQQKKIESYLHNHFIGEGMT [TENT5D] | 3.35 ± 0.33 | 3.59 ± 0.27 | – | –

— the supplement of paper PMC10567573
